Assay: soluble on expression in E. coli; label from the status in PepcDB or PDB records

Sequence | soluble on expression in E. coli
AMSTQGLVQLLANAQCHLRTSTNYNGVHTQFNSALNYKNNGTNTIDGSEAWCSSIVDTNQYIVAGCEVPRTFMCVALQGRGDADQWVTSYKIRYSLDNVSWFEYRNGAAVTGVTDRNTVVNHFFDTPIRARSIAIHPLTWNGHISLRCEFYTQPVQSSVTQVGADIYTGDNCALNTGSGKREVVVPVKFQFEFATLPKVALNFDQIDCTDATNQTRIGVQPRNITTKGFDCVFYTWNENKVYSLRADYIATALE | soluble
NEPVAVIGVGCRFPGDIDGPERLWDFLTEKKCAITAYPDRGFTNAGTFAESGGFLKDVAGFDNRFFDIPPDEALRMDPQQRLLLEVSWEALEHAGIIPESLRLSRTGVFVGVSSTDYVRLVSASAQQKSTIWDNTGGSSSIIANRISYFLDIQGPSIVIDTACSSSLVAVHLACRSLSTWDCDIALVGGTNVLISPEPWGGFREAGILSQTGCCHAFDKSADGMVRGEGCGVIVLQRLSDARLEGRRILAILTGSAVNQDGKSNGIMAPNPSAQIGVLENACKSARVDPLEIGYVEAHGTGTSLGDRIEAHALGMVFGRKRPGSGPLMIGSIKPNIGHLEGAAGIAGLIKAVLMVERGSLLPSGGFTEPNPAIPFTELGLRVVDELQEWPVVAGRPRRAGVSSFGFGGTNAHVIVEEA | soluble
MGMPEEALKIYQELLEIEKELGNEREIALTLANIAVVKDELGEADEAIKLMSEAKDIFEKINDTKNYHIALIDLAHFYYELGEYEKAMQIIEEVLRNPLDDEIEVHGRLVESEIHSALENYKKAALSLRNALLRSGDDEYLFETAFEAVLEFIEELYNEEKLEHHHHHH | not soluble
GSHMNTLKKAFEILDFIVKNPGDVSVSEIAEKFNMSVSNAYKYMVVLEEKGFVLRKKDKRYVPGYKLIEYGSFVLRRFNIRDIAHDHLVDIMKRTGETVHLILKDGFEGVYIDKVEGEQSIPMVSRLGMKVDLYSTASGKSILAFVPEKELKEYLKIVELKPKTPNTITNPRVLKRELEKIRKRGYAVDNEENEIGIMCVGVPIFDHNGYPVAGVSISGVARKFTEEKIEEYSDVLKEKAEEISRKLGY | soluble
MSLDKVERRLYELYEKAINYEPLSKEEALYILEVDDIYVPFLVHLAQKIKKHYFPENEVEFCSIINAKSGACSEDCKFCAQSKYYKTPINVYNLVPVDEMVEGAIRGVEFGANRYCIVLSGKSATKEEVERITEAVKEIKNEGLPINVCVSAGTLDEESLKKLKEAGVKRINHNLETSRNFFKNIVTTHTWEDRYETIKRIKKVGLSTCSGGIFGMGESNEDRVDMALTYRELEVDSIPLNFLMPIEGTPMENAPGVEVMEALKIIAMFRFTNPKAELRLCGGREQNLRDFHGMATLMTNAMMVGGYLTRAGRDIKKDYQLLKDLKAKRKVSVEEGHHHHHH | soluble
MGERKGQNFYYPPDFNYKTHKSLNGYHGTHALRERAKKIDQGILVIRFEMPFNIWCLGCHNHVGMGVRYNAEKKKIGMYYTTPLHEFRMKCHLCDNYYVIRTDPKNFDYELVEGCSRQELRFDPTDIAQIGAVDRGFTQKLAADAMFKKEHEAEDKDKAATEEGRVDKLEWIQERMRDDFTANSFLRAQFRNEKKSLNETRARDANLRDKLSIGTTQLLPETEEDRRIASMMTRYRDTKTHDDHLESSRDRIESRRIFRRPEETDTPSTSSGSSGGAVPSASERLKATMKAERDKRINASFSTAGTSSATQKLLGIKRKSASSLGVQIKKAAPENSSLQDEEPAVEKPNISNPISLIAQEYGNSSDDSD | not soluble
MGSSHHHHHHSSGENLYFQGMTDPAPPPTALAAAKARMRELAASYGAGLPGRDTHSLMHGLDGITLTFMPMGQRDGAYDPEHHVILINSQVRPERQRFTLAHEISHALLLGDDDLLSDLHDEYEGDRLEQVIETLCNVGAAALLMPAELIDDLLTRFGPTGRALAELARRADVSATSALYALAERTAPPVIYAVCALSRQEDEGEGGGAKELTVRASSASAGVKYSLSAGTPVPDDHPAALALDTRLPLAQDSYVPFRSGRRMPAYVDAFPERQRVLVSFALPAGRSEPDADKPEAPGDQS | soluble
SEAMFCDFPKINHGILYDEEKYKPFSQVPTGEVFYYSCEYNFVSPSKSFWTRITCAEEGWSPTPKCLRLCFFPFVENGHSESSGQTHLEGDTVQIICNTGYRLQNNENNISCVERGWSTPPKCRSTISAEKCGPPPPIDNGDITSFLLSVYAPGSSVEYQCQNLYQLEGNNQITCRNGQWSEPPKCLDPCVISQEIMEKYNIKLKWTNQQKLYSRTGDIVEFVCKSGYHPTKSHSFRAMCQNGKLVYPSCEEK | soluble
MHYSYLEPGLHAELAAITPDEAVAHLRNHLGNLLLDPAVTAAYINRLGVLTPEETTPSTRAWLTYLLVRYCDLLPLDLAAQRILAQVTGNAAPHLRDLERCAIPDPIERKLERLGAGEDSERNRAMLLALLHEYPYSPAIMERLMTVELALDIPVGGEWLPSVRPPAGLLRPLHERLFIHAMMQGDTERALQHAAACVPDNPSPHLLNHLAELHARLGDTQQALNLYGASLEADPLQHPVRLRMEALAKPPRAHADALHHRIAICLYSFNKAELLERTLSSLAASQTGEAHILVLLNGCTDDSATRVAAVNERLFNGRLEVIDMPINIGAPAARNWLLAKQTVREADFVAFLDDDVDVPAAWLPRLVGNLEEHPGAGVAGTRVRNPGDVPRLQYLYRNISVARPGLIRLSLDTPTLHHDTGFYDFTRSTTSVMGCCHVFTRRALDEVPAFDLRFSPSQMDDIAHDIDLALAGFDVLYTGDVVCVHHQMSGLGRANATDWKRFGNVAGNDVKFYYRFADRLDALGRLNNLGFMPDMPPALEHHHHHH | soluble
MKKLLSIVLGLALSAPVLANEVSFEQYVERLKQQAREEGISERILNEAFRDVEYKPRSVVADKNQPEKKLTLDEYIPRAVPEWKVKQAQSLYEKHYTELQRIGKQYGVQPRFIVALWGVESNFGAFTGNFRVIDALSTLAYEGRREEFFRKETMAALQILEQGHIAPEAMKGSWAGAMGQCQFMPSSFLNFAADGNGDGKKDIWGTRSDVFASTANYLSQSGWDDKYTWGRQVKIPKGFDHALEGRQPEKGKTLQEWSKLGVTRYDGKPLPALSDDIKAWLIMPDDEAGRIYLVYNNYNVLMKWNRSHYFALAVSHLADRIAF | not soluble
MEKKFIAIYDLESDKIEIIDDKFRFKCIEDCGKCCIYNEIPLREEDIQKILSLGYEEEYFVDYTKMFYRGPKFLGYGMKKRPFDDACVFLDPETKKCRIYEHRPVACRIYPFVLVKHEKKLEIYVKEDPRCPGINSPDGEGIVEIIKKYFIPIIEELKGEINGNRRSRQEDFISFNRRLETVVAAALEHHHHHH | not soluble
MNLHICEVTAKNWRSVVALDVAKDQQQFIESNAFSLAESLYEGNGTSVGLYDSETLVGYAMYGWYSVKHKSVWLDRFMIDQQYQGKGYAKRFLRLLIQFLQEKFECKIIYLSLHPDNKLAMGLYESFGFRLNGDIDDEGPVVGVVMELLIDENTSL | not soluble
MGCVGAGADAEGREARKVNKQIEEQLAKDKQVMRATHRLLLLGAGESGKSTIVKQMRILHINGFNEAEKREKITDIRRNVRDAMQVILRAMDEIVPKVSLDDPSTAISRDYILRITNDPEDNYPSEFYDHILTCWKDKGVMACYERSSEYQLIDCAQYFLDKVDVVRQNNYDPSEQDILRCRVMTTGIFETKFEVDKVRFHMFDVGGQRDERRKWIQCFNDVTAIIFVCASSSYNLVLWEDNTQNRLRESLALFKNIWNNRWLKTISVILFLNKQDLLSEKIKAKRYLLESFFPEFEGYNLPNDAVFDNQEDKDVVRAKYFIRGEFLRISTANSDGRHHCYPHFTCAVDTENIRRVFNDCRDIIQRIHLRQYELL | not soluble
MDKNETRATIIRIGTDLISRQGFNATGIDAVLKEAGVPKGSFYYYFRSKEEFGLAVIDHFAERYDQRLDTFLNDEEVTPLNRIRNYLESALARLEQNQCSKGCLIGNLGQELADQHERFRGRLDEIFRSWKDRFAACLREAQRGGELAPELDAGVAAGFILSGLEGAILRTKVMKSPQPLRDFIEILFASVLRRQA | not soluble
MPKIKRVKKGKKLKPNVMIFCEGETEEAYLRLIKRKYSAVNIKSKLKVKTCRRQGEALVEYAVSCIRSMGKAERDNYDLFYVMYDKDEQTTESIENAVRCAQRHRPEIKTIFSNECFELWLLLHFEEVNRYMTRENLYGRLEKVLHLKDSYRNFKGAEVCKYLEEKVAIAFQNTNKNWLSPLEEMKINENPYTNFPKELCEMLAQKEVDF | not soluble
MGSDKIHHHHHHMNYKLISIDLAKTVFQVAAFNPDNTIAFNRKINRPALLDMLRQCEPTLVVMEACYSANYWGRTIEKLGHTVKLIPARMVKAMLVGNKNDANDAVAIGETAGRPKVSLLRPKTVEQQDIQSLLRIRERLVENRTANCNQLRGFLAEYGLIVAKTRRQLMLAIPLILEDADNELSTVARGFIQRLYEFQLYLNEQIDQVAQDILALAQAMPQYPLLLTIPGVGPIVASTLLASINEVNDFKNGRQLAAWLGLTPSQYSSGTTNRLGKITKRGNQTLRRLLIHGARTVVNWCDKKDDSLSLWLQRLKQRQHVCKVTVALANKMARMVFVVMSRGQAFDMNKACKLAT | not soluble
GPGSMSVRIRFILTGACPPSYSGKQVQLNFPLEDENGAPTTTAHLKQLIRTQWPENMSEMKEVVEKTEMRVLKTGNLLSDDTQIRSVLTATELSECSINPSAEGSGRADEDQKSVLMHLVFQSNQSQGRQRDGSAGGGRRDNASHDSGCCTML | soluble
MGGRSRWEIAQESTLALARKCEQFDPDGITVYLFSGKFKRYDDVTSAKVAQIFLENDPAGTTNLAGVLQDALNNYFQRKAAGKTKPNGETILVITDGEPDDRKAVFETIIHATRQMERDEELGISMIQVGSDAQATKFLKALDDQLQSVGAKFDICDTITLEDLEDMSLADVLMNAITDLEHHHHHH | not soluble
MTDFLEIRPLTKEAFTPFGDVIETTPSSMRHINGGQTERHHALSAPEAAGEGARIILNIFRGQPRVFPHKIDMMERHPLGSQSFSPLSGRPFLVVVAQDDGGRPARPQVFLARGDQGVNYRRNVWHYPLMPLQAVSDFLVADREGPGNNLEEYFFDEPFMIAEPSL | not soluble
DQVDVKDCANNEIKKVMVDGCHGSDPCIIHRGKPFTLEALFDANQNTKTAKIEIKASLDGLEIDVPGIDTNACHFVKCPLVKGQQYDIKYTWNVPKIAPKSENVVVTVKLIGDNGVLACAIATHGKIRD | soluble
MQEEVNQKVISLSIQGVKITASVLKAALRKFLEMDNRRKQKATQVKMAEKTGRAQEKGREKARKKIEKKKPHGKQTIKQLNAQGVQLSNLKITDENVKSFDRVARKYGIDYSLKKEVGADPPKYLVFFKAKDVDVMTAAFREYAGVELKKKQVKKPSVRKKLQKSVERKAKNRQRVKQRQKSRGQER | not soluble
